{"source": "patent US20240100162A1", "about": "(published 2024)", "binders": {"B1": {"name": "TCR2 (TCR, V domains shown)", "Valpha": "QKEVEQNSGPLSVPEGAIASLNCTYSDRGSQSFFWYRQYSGKSPELIMSIYSNGDKEDGRFTAQLNKASQYVSLLIRDSQPSDSATYLCAVNIPFSNSGGYQKVTFGTGTKLQVIP", "Vbeta": "NAGVTQTPKFRVLKTGQSMTLLCAQDMNHEYMYWYRQDPGMGLRLIHYSVGEGTTAKGEVPDGYNVSRLKKQNFLLGLESAAPSQTSVYFCASRHPGQYNQPQHFGDGTRLSIL"}, "B2": {"name": "TCR3 (TCR, V domains shown)", "Valpha": "AQKVTQAQTEISVVEKEDVTLDCVYETRDTTYYLFWYKQPPSGELVFLIRRNSFDEQNEISGRYSWNFQKSTSSFNFTITASQVVDSAVYFCALSVLRMDSSYKLIFGSGTRLLVRP", "Vbeta": "NAGVTQTPKFRVLKTGQSMTLLCAQDMNHEYMYWYRQDPGMGLRLIHYSVGEGTTAKGEVPDGYNVSRLKKQNFLLGLESAAPSQTSVYFCASSLQGAGQPQHFGDGTRLSIL"}, "B3": {"name": "TCR1 (TCR, V domains shown)", "Valpha": "KQEVTQIPAALSVPEGENLVLNCSFTDSAIYNLQWFRQDPGKGLTSLLLIQSSQREQTSGRLNASLDKSSGRSTLYIAASQPGDSATYLCAAMKTSYDKVIFGPGTSLSVIP", "Vbeta": "GEEVAQTPKHLVRGEGQKAKLYCAPIKGHSYVFWYQQVLKNEFKFLISFQNENVFDETGMPKERFSAKCLPNSPCSLEIQATKLEDSAVYFCASSQGQGGYGYTFGSGTRLTVV"}}, "assay_in_all_cases": "killing", "key": {"[1]": {"target": "T1, MAGE-B2 peptide, E7S peptide on HLA-A*02:01 (human)", "T1 peptide": "GVYDGESHSV"}, "[2]": {"target": "T2, MAGE-B2 peptide, H8S peptide on HLA-A*02:01 (human)", "T2 peptide": "GVYDGEESSV"}, "[3]": {"target": "T3, MAGE-B2 peptide, H8L peptide on HLA-A*02:01 (human)", "T3 peptide": "GVYDGEELSV"}, "[4]": {"target": "T4, MAGE-B2 peptide, H8M peptide on HLA-A*02:01 (human)", "T4 peptide": "GVYDGEEMSV"}, "[5]": {"target": "T5, MAGE-B2 peptide, E6S peptide on HLA-A*02:01 (human)", "T5 peptide": "GVYDGSEHSV"}, "[6]": {"target": "T6, MAGE-B2 peptide, H8C peptide on HLA-A*02:01 (human)", "T6 peptide": "GVYDGEECSV"}, "[7]": {"target": "T7, MAGE-B2 peptide, S9K peptide on HLA-A*02:01 (human)", "T7 peptide": "GVYDGEEHKV"}, "[8]": {"target": "T8, MAGE-B2 peptide, E7F peptide on HLA-A*02:01 (human)", "T8 peptide": "GVYDGEFHSV"}, "[9]": {"target": "T9, MAGE-B2 peptide, S9H peptide on HLA-A*02:01 (human)", "T9 peptide": "GVYDGEEHHV"}, "[10]": {"target": "T10, MAGE-B2 peptide, E6T peptide on HLA-A*02:01 (human)", "T10 peptide": "GVYDGTEHSV"}, "[11]": {"target": "T11, MAGE-B2 peptide, E7W peptide on HLA-A*02:01 (human)", "T11 peptide": "GVYDGEWHSV"}, "[12]": {"target": "T12, MAGE-B2 peptide, H8K peptide on HLA-A*02:01 (human)", "T12 peptide": "GVYDGEEKSV"}, "[13]": {"target": "T13, MAGE-B2 peptide, H8V peptide on HLA-A*02:01 (human)", "T13 peptide": "GVYDGEEVSV"}, "[14]": {"target": "T14, MAGE-B2 peptide, S9L peptide on HLA-A*02:01 (human)", "T14 peptide": "GVYDGEEHLV"}, "[15]": {"target": "T15, MAGE-B2 peptide, E6C peptide on HLA-A*02:01 (human)", "T15 peptide": "GVYDGCEHSV"}, "[16]": {"target": "T16, MAGE-B2 peptide, H8R peptide on HLA-A*02:01 (human)", "T16 peptide": "GVYDGEERSV"}, "[17]": {"target": "T17, MAGE-B2 peptide, H8Q peptide on HLA-A*02:01 (human)", "T17 peptide": "GVYDGEEQSV"}, "[18]": {"target": "T18, MAGE-B2 peptide, E7T peptide on HLA-A*02:01 (human)", "T18 peptide": "GVYDGETHSV"}, "[19]": {"target": "T19, MAGE-B2 peptide, H8D peptide on HLA-A*02:01 (human)", "T19 peptide": "GVYDGEEDSV"}, "[20]": {"target": "T20, MAGE-B2 peptide, Y3W peptide on HLA-A*02:01 (human)", "T20 peptide": "GVWDGEEHSV"}, "[21]": {"target": "T21, MAGE-B2 peptide, H8G peptide on HLA-A*02:01 (human)", "T21 peptide": "GVYDGEEGSV"}, "[22]": {"target": "T22, MAGE-B2 peptide, H8A peptide on HLA-A*02:01 (human)", "T22 peptide": "GVYDGEEASV"}, "[23]": {"target": "T23, MAGE-B2 peptide, E6M peptide on HLA-A*02:01 (human)", "T23 peptide": "GVYDGMEHSV"}, "[24]": {"target": "T24, MAGE-B2 peptide, D4P peptide on HLA-A*02:01 (human)", "T24 peptide": "GVYPGEEHSV"}, "[25]": {"target": "T25, MAGE-B2 peptide, H8P peptide on HLA-A*02:01 (human)", "T25 peptide": "GVYDGEEPSV"}, "[26]": {"target": "T26, MAGE-B2 peptide, E7I peptide on HLA-A*02:01 (human)", "T26 peptide": "GVYDGEIHSV"}, "[27]": {"target": "T27, MAGE-B2 peptide, S9R peptide on HLA-A*02:01 (human)", "T27 peptide": "GVYDGEEHRV"}, "[28]": {"target": "T28, MAGE-B2 peptide, H8T peptide on HLA-A*02:01 (human)", "T28 peptide": "GVYDGEETSV"}, "[29]": {"target": "T29, MAGE-B2 peptide, S9F peptide on HLA-A*02:01 (human)", "T29 peptide": "GVYDGEEHFV"}, "[30]": {"target": "T30, MAGE-A4 peptide on HLA-A*02:01 (human)", "T30 peptide": "GVYDGREHTV"}, "[31]": {"target": "T31, MAGE-B2 peptide, S9Y peptide on HLA-A*02:01 (human)", "T31 peptide": "GVYDGEEHYV"}, "[32]": {"target": "T32, MAGE-B2 peptide, H8E peptide on HLA-A*02:01 (human)", "T32 peptide": "GVYDGEEESV"}, "[33]": {"target": "T33, MAGE-B2 peptide, G1A peptide on HLA-A*02:01 (human)", "T33 peptide": "AVYDGEEHSV"}, "[34]": {"target": "T34, MAGE-B2 peptide, E6K peptide on HLA-A*02:01 (human)", "T34 peptide": "GVYDGKEHSV"}, "[35]": {"target": "T35, MAGE-B2 peptide, G5A peptide on HLA-A*02:01 (human)", "T35 peptide": "GVYDAEEHSV"}, "[36]": {"target": "T36, MAGE-B2 peptide, E7P peptide on HLA-A*02:01 (human)", "T36 peptide": "GVYDGEPHSV"}, "[37]": {"target": "T37, MAGE-B2 peptide, G5S peptide on HLA-A*02:01 (human)", "T37 peptide": "GVYDSEEHSV"}, "[38]": {"target": "T38, MAGE-B2 peptide, G1I peptide on HLA-A*02:01 (human)", "T38 peptide": "IVYDGEEHSV"}, "[39]": {"target": "T39, MAGE-B2 peptide, G1S peptide on HLA-A*02:01 (human)", "T39 peptide": "SVYDGEEHSV"}, "[40]": {"target": "T40, MAGE-B2 peptide, G1H peptide on HLA-A*02:01 (human)", "T40 peptide": "HVYDGEEHSV"}, "[41]": {"target": "T41, MAGE-B2 peptide, G5C peptide on HLA-A*02:01 (human)", "T41 peptide": "GVYDCEEHSV"}}}
{"binder": "B1", "values": [{"measurement": "binding result", "setting": "[1]", "result": "recognises"}, {"measurement": "binding result", "setting": "[2]", "result": "recognises"}, {"measurement": "binding result", "setting": "[3]", "result": "recognises"}, {"measurement": "binding result", "setting": "[4]", "result": "recognises"}, {"measurement": "binding result", "setting": "[5]", "result": "recognises"}, {"measurement": "binding result", "setting": "[6]", "result": "recognises"}, {"measurement": "binding result", "setting": "[7]", "result": "recognises"}, {"measurement": "binding result", "setting": "[8]", "result": "recognises"}, {"measurement": "binding result", "setting": "[9]", "result": "recognises"}, {"measurement": "binding result", "setting": "[10]", "result": "recognises"}, {"measurement": "binding result", "setting": "[11]", "result": "recognises"}, {"measurement": "binding result", "setting": "[12]", "result": "recognises"}, {"measurement": "binding result", "setting": "[13]", "result": "recognises"}, {"measurement": "binding result", "setting": "[14]", "result": "recognises"}, {"measurement": "binding result", "setting": "[15]", "result": "recognises"}, {"measurement": "binding result", "setting": "[16]", "result": "recognises"}, {"measurement": "binding result", "setting": "[17]", "result": "recognises"}, {"measurement": "binding result", "setting": "[18]", "result": "recognises"}, {"measurement": "binding result", "setting": "[19]", "result": "recognises"}, {"measurement": "binding result", "setting": "[20]", "result": "recognises"}, {"measurement": "binding result", "setting": "[21]", "result": "recognises"}, {"measurement": "binding result", "setting": "[22]", "result": "recognises"}, {"measurement": "binding result", "setting": "[23]", "result": "recognises"}, {"measurement": "binding result", "setting": "[24]", "result": "recognises"}, {"measurement": "binding result", "setting": "[25]", "result": "recognises"}, {"measurement": "binding result", "setting": "[26]", "result": "recognises"}, {"measurement": "binding result", "setting": "[27]", "result": "recognises"}, {"measurement": "binding result", "setting": "[28]", "result": "recognises"}, {"measurement": "binding result", "setting": "[29]", "result": "recognises"}, {"measurement": "binding result", "setting": "[30]", "result": "no recognition"}, {"measurement": "binding result", "setting": "[31]", "result": "recognises"}, {"measurement": "binding result", "setting": "[32]", "result": "recognises"}, {"measurement": "binding result", "setting": "[33]", "result": "recognises"}]}
{"binder": "B2", "values": [{"measurement": "binding result", "setting": "[1]", "result": "recognises"}, {"measurement": "binding result", "setting": "[2]", "result": "recognises"}, {"measurement": "binding result", "setting": "[3]", "result": "recognises"}, {"measurement": "binding result", "setting": "[34]", "result": "recognises"}, {"measurement": "binding result", "setting": "[4]", "result": "recognises"}, {"measurement": "binding result", "setting": "[5]", "result": "recognises"}, {"measurement": "binding result", "setting": "[6]", "result": "recognises"}, {"measurement": "binding result", "setting": "[7]", "result": "recognises"}, {"measurement": "binding result", "setting": "[8]", "result": "recognises"}, {"measurement": "binding result", "setting": "[35]", "result": "recognises"}, {"measurement": "binding result", "setting": "[9]", "result": "recognises"}, {"measurement": "binding result", "setting": "[10]", "result": "recognises"}, {"measurement": "binding result", "setting": "[11]", "result": "recognises"}, {"measurement": "binding result", "setting": "[12]", "result": "recognises"}, {"measurement": "binding result", "setting": "[13]", "result": "recognises"}, {"measurement": "binding result", "setting": "[14]", "result": "recognises"}, {"measurement": "binding result", "setting": "[15]", "result": "recognises"}, {"measurement": "binding result", "setting": "[16]", "result": "recognises"}, {"measurement": "binding result", "setting": "[17]", "result": "recognises"}, {"measurement": "binding result", "setting": "[18]", "result": "recognises"}, {"measurement": "binding result", "setting": "[19]", "result": "recognises"}, {"measurement": "binding result", "setting": "[36]", "result": "recognises"}, {"measurement": "binding result", "setting": "[21]", "result": "recognises"}, {"measurement": "binding result", "setting": "[22]", "result": "recognises"}, {"measurement": "binding result", "setting": "[23]", "result": "recognises"}, {"measurement": "binding result", "setting": "[25]", "result": "recognises"}, {"measurement": "binding result", "setting": "[26]", "result": "recognises"}, {"measurement": "binding result", "setting": "[27]", "result": "recognises"}, {"measurement": "binding result", "setting": "[28]", "result": "recognises"}, {"measurement": "binding result", "setting": "[29]", "result": "recognises"}, {"measurement": "binding result", "setting": "[30]", "result": "recognises"}, {"measurement": "binding result", "setting": "[31]", "result": "recognises"}, {"measurement": "binding result", "setting": "[32]", "result": "recognises"}, {"measurement": "binding result", "setting": "[37]", "result": "recognises"}]}
{"binder": "B3", "values": [{"measurement": "binding result", "setting": "[38]", "result": "recognises"}, {"measurement": "binding result", "setting": "[36]", "result": "recognises"}, {"measurement": "binding result", "setting": "[20]", "result": "recognises"}, {"measurement": "binding result", "setting": "[39]", "result": "recognises"}, {"measurement": "binding result", "setting": "[24]", "result": "recognises"}, {"measurement": "binding result", "setting": "[40]", "result": "recognises"}, {"measurement": "binding result", "setting": "[41]", "result": "recognises"}, {"measurement": "binding result", "setting": "[37]", "result": "recognises"}, {"measurement": "binding result", "setting": "[33]", "result": "recognises"}]}
